This is an account of results in patent publication US20180186871A1.

Holding throughout (assay): cell-based or functional assay
In assay [1] the target is IL-11:IL-11Rα fusion protein.
Assay [2] has as its target human IL-11 (human) (UniProt P20809).
In assay [3] the target is T1, murine IL-11 (mouse) (UniProt P47873).
T1 sequence (looked up): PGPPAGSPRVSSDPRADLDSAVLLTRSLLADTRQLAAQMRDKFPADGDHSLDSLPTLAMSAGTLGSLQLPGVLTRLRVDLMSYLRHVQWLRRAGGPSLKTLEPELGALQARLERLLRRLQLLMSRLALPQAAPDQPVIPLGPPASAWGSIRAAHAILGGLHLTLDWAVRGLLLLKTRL

Assay [4] concerns the target T1, murine IL-11 (mouse). The source holds these as a separate data set.

Where two headings read alike, the source gives them in different places.

Chain of IL-11:IL-11Rα fusion protein (chain, as listed by the source limits assumed): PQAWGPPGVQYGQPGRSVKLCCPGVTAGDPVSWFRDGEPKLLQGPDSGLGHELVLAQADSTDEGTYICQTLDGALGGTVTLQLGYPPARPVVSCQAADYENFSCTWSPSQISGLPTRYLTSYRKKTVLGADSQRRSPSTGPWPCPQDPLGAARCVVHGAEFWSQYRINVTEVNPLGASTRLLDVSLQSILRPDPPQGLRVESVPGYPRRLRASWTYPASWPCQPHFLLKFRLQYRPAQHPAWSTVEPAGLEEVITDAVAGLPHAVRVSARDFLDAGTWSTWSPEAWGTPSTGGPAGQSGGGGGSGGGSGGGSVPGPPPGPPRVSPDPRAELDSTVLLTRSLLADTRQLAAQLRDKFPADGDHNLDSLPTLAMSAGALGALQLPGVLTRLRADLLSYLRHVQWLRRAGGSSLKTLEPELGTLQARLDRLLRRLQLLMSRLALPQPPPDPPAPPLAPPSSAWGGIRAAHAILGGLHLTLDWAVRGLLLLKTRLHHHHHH

Take “Monoclonal Mouse IgG2A anti-human IL-11 antibody, Clone #22626, Catalog No. MAB218 (R&D Systems)”: in assay [1], the percentage of αSMA-positive (activated) fibroblasts, human atrial fibroblasts + hyper IL-11 (0.2 ng/ml) is 33.8% and the percentage of αSMA-positive (activated) fibroblasts, human atrial fibroblasts + hyper IL-11 (0.2 ng/ml), normalised to unstimulated (=1) (fold of unstimulated) turned out to be 1.28. In addition, in assay [2], the percentage of αSMA-positive (activated) fibroblasts, human atrial fibroblasts + TGFβ1 came out at 28.3%; the percentage of αSMA-positive (activated) fibroblasts, human atrial fibroblasts + TGFβ1, normalised to unstimulated (=1) (fold of unstimulated) stood at 0.99; the percentage of αSMA-positive (activated) fibroblasts, human atrial fibroblasts + TGFβ1, relative to unstimulated is 0.89 times. Also, in assay [3], the percentage of αSMA-positive (activated) fibroblasts, mouse atrial fibroblasts + TGFβ1 amounted to 39.4% and the percentage of αSMA-positive (activated) fibroblasts, mouse atrial fibroblasts + TGFβ1, normalised to unstimulated (=1) (fold of unstimulated) is 1.24. In assay [4], the percentage of αSMA-positive (activated) fibroblasts, mouse atrial fibroblasts + TGFβ1 was determined as 43% and the percentage of αSMA-positive (activated) fibroblasts, mouse atrial fibroblasts + TGFβ1, normalised to unstimulated (=1) (fold of unstimulated) came to 1.44.
